Where “and” joins values, the source holds several entries; their conditions need not be identical. Equal values may be shown once.
Columns and labels:
Conditions in all cases: 20 nM; 72 h
MCF10A [1] = experiment: 5+ nucleoli phenotype percent effect (relative to siNT 0% and siKIF11 100%); higher = more cells with five or more nucleoli
Method: (§1)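 After 72 h, cells were fixed and stained with Hoechst and anti-fibrillarin, and nucleoli per nucleus were counted with CellProfiler. Values are plate-adjusted percent effect for the one-nucleolus and 5+ nucleoli phenotypes, normalised to siNT (0%) and to the positive controls siNOL11 or siKIF11 (100%), as the mean of biological triplicates. Percent viability is the nuclei count relative to siNT.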

MCF10A [2] = experiment: percent viability (nuclei count relative to siNT); higher = more viable cells
Method: as §1

MCF10A [3] = experiment: one-nucleolus phenotype percent effect (relative to siNT 0% and siNOL11 100%); higher = more cells with one nucleolus (ribosome biogenesis inhibition)
Method: as §1

Sequence | 5+ nucleoli phenotype percent effect (MCF10A [1]) | percent viability (MCF10A [2]) | one-nucleolus phenotype percent effect (MCF10A [3])
ACUCAGUCAUGGUCAUU [hsa-miR-4264] | 26.3% | 95.1% | -7.28%
UGAGGAGAUCGUCGAGGUUGG [hsa-miR-3150b-3p] | 24.3% | 47.3% | -11.7%
AGCUGAGCUCCAUGGACGUGCAGU [hsa-miR-4663] | 16.3% | 67% | -21.4%
UGACUAACUCCCACUCUACAG [hsa-miR-6831-3p] | 16.8% | 41.8% | -28.1%
ACUUGGGCACUGAAACAAUGUCC [hsa-miR-635] | 32.7% | 65.6% | -11.4%
UUGAAUUCUUGGCCUUAAGUGAU [hsa-miR-4452] | -9.56% | 42.1% | -19.4%
UGUGACAAUAGAGAUGAACAUG [hsa-miR-4504] | -15.9% | 39.9% | 30.4%
UUGCCACACUGCAACACCUUACA [hsa-miR-3064-3p] | -31.2% | 39.1% | 8.14%
GUGAGUCUCUAAGAAAAGAGGA [hsa-miR-627] | 7.75% | 62.9% | -10.4%
UACUAACUGCAGAUUCAAGUGA [hsa-miR-4637] | 24.1% | 140% | -24.1%
GCCGGGGCUUUGGGUGAGGG [hsa-miR-6784-5p] | 49% | 171% | -23.3%
UGGGCGUAUCUGUAUGCUA [hsa-miR-585] | -5.6% | 39.1% | 41.1%
GGGGAGCUGUGGAAGCAGUA [hsa-miR-920] | 23.5% | 53.2% | -6.81%
UUGCAUAUGUAGGAUGUCCCAU [hsa-miR-448] | 34% | 75.6% | -2.74%
UAGGCACACUUAAAGUUAUAGC [hsa-miR-5582-5p] | -17.3% | 13.8% | 37.6%
UAUAUAUACAGCCAUGCACUC [hsa-miR-5011-5p] | 39.8% | 74.6% | -18.5%
CCGGCCGCCGGCUCCGCCCCG [hsa-miR-1908-3p] | 44.4% | 96% | -14.6%
CCCAGUGUUCAGACUACCUGUUC [hsa-miR-199a-5p] | -30.3% | 68.8% | 4.51%
GGUGGAUAUUCCUUCUAUGUU [hsa-miR-376c-5p] | -0.73% | 20.7% | 21.9%
UGGUUUACCGUCCCACAUACAU [hsa-miR-299-5p] | -19.4% | 27.9% | 24.1%

Sequence | 5+ nucleoli phenotype percent effect (MCF10A [1]) | percent viability (MCF10A [2]) | one-nucleolus phenotype percent effect (MCF10A [3])
AGAUCGACCGUGUUAUAUUCGC [hsa-miR-369-5p] | 3.93% | 53% | -0.708%
UCCCUCGCCUUCUCACCCUCAG [hsa-miR-6803-3p] | 25.3% | 58.1% | -18.8%
AGCAGGGCUGGGGAUUGCA [hsa-miR-6132] | -31% | 20.5% | 57.1%
AAGUGUGCAGGGCACUGGU [hsa-miR-648] | -33.3% | 20.9% | 40.5%
CAGAGAAUUGUUUAAUC [hsa-miR-3123] | 54.9% | 124% | -40.8%
UCUGGCUCCGUGUCUUCACUCCC [hsa-miR-149-5p] | -2.69% | 32.7% | 30.7%
AUGGAAUGUAUAUACGGAAUA [hsa-miR-3673] | -48.6% | 35.7% | 63.4%
GUAAGGGACCGGAGAGUAGGA [hsa-miR-6892-5p] | -29% | 22.3% | 20.5%
CUGGGACAGGAGGAGGAGGCAG [hsa-miR-4298] | 39.2% | 67.8% | -17.4%
GGGGCUGGGGCCGGGGCCGAGC [hsa-miR-762] | 53.9% | 59.8% | -31.4%
GUGCGUGGUGGCUCGAGGCGGGG [hsa-miR-6821-5p] | 24.3% | 82.1% | -27.7%
UUUUAAGGACACUGAGGGAUC [hsa-miR-7856-5p] | 57.8% | 70.5% | -30.1%
CGUGGAUAUUCCUUCUAUGUUU [hsa-miR-376b-5p] | -14% | 22% | 9.58%
UGUUCAUGUAGAUGUUUAAGC [hsa-miR-1206] | 42.5% | 95.8% | -22.5%
CAGGGAGAAGGUGGAAGUGCAGA [hsa-miR-6760-5p] | 29.9% | 24.8% | -0.928%
ACCACUGCACUCCAGCCUGAG [hsa-miR-1273g-3p] | -16.5% | 39.3% | 5.96%
GGGGGAAGAAAAGGUGGGG [hsa-miR-4271] | 20.1% | 72.2% | -5.03%
GAUGAUGAUGGCAGCAAAUUCUGAAA [hsa-miR-1272] | 4.28% | 76.8% | 8.72%
CCAGAGAUGGUUGCCUUCCUAU [hsa-miR-4756-3p] | 4.75% | 56.8% | -3.67%
AGGAGCUAGCCAGGCAUAUGCA [hsa-miR-4633-3p] | -40.1% | 15.3% | 37.9%

Sequence | 5+ nucleoli phenotype percent effect (MCF10A [1]) | percent viability (MCF10A [2]) | one-nucleolus phenotype percent effect (MCF10A [3])
AGACAUCAAGAUCAGUCCCAAA [hsa-miR-3913-3p] | 10.4% | 21.7% | 34.3%
UAGCACCAUUUGAAAUCAGUGUU [hsa-miR-29b-3p] | 20.2% | 63.7% | -20.6%
CCUCCAAAGGGAAGCGCUUUCUGUU [hsa-miR-519d-5p] | 21.8% | 65.3% | -10.6%
AGGCCUGUGGCUCCUCCCUCAG [hsa-miR-6735-3p] | 15.7% | 50.4% | -1.31%
CUCUAGAGGGAAGCGCUUUCUG [hsa-miR-523-5p] | -3.36% | 54.8% | 5.46%
AUUCUGCAUUUUUAGCAAGUUC [hsa-miR-544a] | -31.2% | 26.6% | 5.39%
UACUGCAUCAGGAACUGAUUGGA [hsa-miR-217] | 1.56% | 62.9% | 0.807%
UGGCCCGGCGACGUCUCACGGUC [hsa-miR-4745-3p] | 45% | 58.7% | -29.1%
UCUGCAAGUGUCAGAGGCGAGG [hsa-miR-2276] | 38.4% | 160% | -15.8%
UGAGCCCUGUCCUCCCGCAG [hsa-miR-1233-3p] | 7.25% | 63.8% | -6.71%
CGCCUGCCCAGCCCUCCUGCU [hsa-miR-4763-5p] | -11.3% | 38.1% | 11.6%
UGCUGCCUCUCCUCUUGCCUGCAG [hsa-miR-6882-3p] | 44.3% | 45.6% | -22.8%
UGUGACUGGUUGACCAGAGGGG [hsa-miR-134] | -26.5% | 28% | 31.9%
AGGGCAUAGGAGAGGGUUGAUAU [hsa-miR-3945] | 34.8% | 27.2% | -1.06%
UGCUGUAUUGUCAGGUAGUGA [hsa-miR-4999-5p] | -10.3% | 48.1% | -7.82%
UCGUGGCCUGGUCUCCAUUAU [hsa-miR-1204] | 2.14% | 48.3% | -7.25%
UGGGGGUGGUCUCUAGCCAAGG [hsa-miR-6842-5p] | -11.8% | 9.46% | -7.28%
GCGGCGAGUCCGACUCAU [hsa-miR-4285] | 32.6% and 20.7% | – | -17.6% and -20.2%
UUUCUAUGUUAGUUGGAAG [hsa-miR-7159-3p] | 0.357% | 26.4% | 5.4%
AAAAACUGUAAUUACUUUU [hsa-miR-548f] | 53.7% and 60% and 60.4% | – | -26.8% and -24.7% and -21.2%

— the supplement of paper PMC10899765
